“And” between values parts separate entries of the source, which are not always exact repeats. Identical values can stand only once.
Molecular target: T1, recombinant protein consisting of the 149 C-terminal amino acids of NMMIIA (UniProt P35579 1812-1960)
T1 construct: non-muscle myosin heavy chain isoform IIA (NMMIIA), the 149 C-terminal amino acids; also called rNMMIIA; recombinant C-terminal fragment of non-muscle myosin II heavy chain; source: recombinant
T1 sequence (looked up): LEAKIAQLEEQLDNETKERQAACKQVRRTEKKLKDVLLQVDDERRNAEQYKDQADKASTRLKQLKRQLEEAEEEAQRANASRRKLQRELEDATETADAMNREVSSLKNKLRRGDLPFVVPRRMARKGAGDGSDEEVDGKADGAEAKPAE
Assay: resonant mirror biosensor (IAsys); rNMMIIA immobilised, rS100P variants in solution; dual-channel IAsys resonant mirror biosensor; association and dissociation curves fitted a single-site model at least as well as a two-site model; equilibrium and kinetic Kd
Conditions: both partners purified

B1: ΔK95 mutant recombinant S100P protein (natural protein, human, UniProt P25815 1-95, looked up)
chain: MTELETAMGMIIDVFSRYSGSEGSTQTLTKGELKVLMEKELPGFLQSGKDKDAVDKLLKDLDANGDAQVDFSEFIVFVAAITSACHKYFEKAGL
notes: S100P, human, with the C-terminal lysine (K95) deleted, so that the chain ends with leucine 94; Identity confirmed by mass spectrometry; also called ΔK95 S100P; ΔK95 mutant rS100P; source: recombinant protein from pET15b vector after site-directed mutagenesis; details in Supplementary Methods S1
Kd: 2700 nM and 6000 nM

B2: wild-type recombinant S100P protein (natural protein, human, UniProt P25815 1-95, looked up)
chain: MTELETAMGMIIDVFSRYSGSEGSTQTLTKGELKVLMEKELPGFLQSGKDKDAVDKLLKDLDANGDAQVDFSEFIVFVAAITSACHKYFEKAGLK
notes: S100P, human, 95-amino-acid monomer; cDNA encoding the wild-type protein in pET15b; primers on GenBank NM_005980 run from the ATG (95) to the stop codon (382); also called rS100P; wild-type rS100P; source: recombinant protein from a cDNA in pET15b vector; details in Supplementary Methods S1
Kd: 370 to 470 nM

B3: K95A mutant recombinant S100P protein (natural protein, human, UniProt P25815 1-95, looked up)
chain: MTELETAMGMIIDVFSRYSGSEGSTQTLTKGELKVLMEKELPGFLQSGKDKDAVDKLLKDLDANGDAQVDFSEFIVFVAAITSACHKYFEKAGLA
notes: S100P, human, 95 amino acids, with the C-terminal lysine replaced by alanine; Identity confirmed by mass spectrometry; also called K95A S100P; K95A mutant rS100P; source: recombinant protein from pET15b vector after site-directed mutagenesis; details in Supplementary Methods S1
Kd: 2300 nM and 4100 nM
